Measured values published in paper PMC8062489, “Tgf-β1 transcriptionally promotes 90K expression: possible implications for cancer progression”.

B1: Oligo I (dsDNA)
DNA 1: GCAGCCTCCGTCATGTGTTTTCTGGA
DNA 2: TCCAGAAAACACATGACGGAGGCTGC
B2: EWT (E, consensus E-box) (dsDNA)
DNA 1: GGAAGCAGACCACGTGGTCTGCTT
DNA 2: AAGCAGACCACGTGGTCTGCTTCC

Target: rUSF1 (recombinant His-USF1) (UniProt P22415 1-310)
Experiment: EMSA; 20 mM HEPES (pH not stated), 0.1% NP40, 5 mM MgCl2, 50 mM KCl, 2% glycerol, 2 mM DTT, 50 ng/ml poly(dI-dC), room temperature, 20 ul, 5 ug nuclear extract; 5% native PAGE in 1x TBE
Conditions: protein: recombinant; tags: N-terminal His-tag; chain copies: 2; label: 5'-32P as probe; blunt

Sequence of rUSF1 (recombinant His-USF1) (P22415 whole entry): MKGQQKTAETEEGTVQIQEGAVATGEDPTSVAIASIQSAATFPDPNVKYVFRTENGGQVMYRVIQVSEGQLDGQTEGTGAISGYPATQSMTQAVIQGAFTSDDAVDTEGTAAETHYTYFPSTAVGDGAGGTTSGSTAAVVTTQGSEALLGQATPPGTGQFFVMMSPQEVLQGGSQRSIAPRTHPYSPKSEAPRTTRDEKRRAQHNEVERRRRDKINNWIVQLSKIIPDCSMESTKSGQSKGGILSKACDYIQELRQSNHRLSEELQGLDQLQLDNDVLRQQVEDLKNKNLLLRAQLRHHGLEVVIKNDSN

| Binder | binding result |
| --- | --- |
| B1 | binds |
| B2 | binds |
